Assay results from publication PMC12375107 (Cell Death & Disease, 2025).

Target: T1, STING protein (SPR) (human, UniProt Q86WV6 1-379)
T1 construct: STING, protein injected as analyte; Probably the recombinant protein from E. coli of the GST pull-down
Assay: SPR; Biacore 8K; CAD captured on sensor chip CM5; STING injected at increasing concentrations for 2 min, dissociation 2 min in running buffer; equilibrium constants by the evaluation software
Settings: both partners purified

T1 sequence (Q86WV6 whole entry): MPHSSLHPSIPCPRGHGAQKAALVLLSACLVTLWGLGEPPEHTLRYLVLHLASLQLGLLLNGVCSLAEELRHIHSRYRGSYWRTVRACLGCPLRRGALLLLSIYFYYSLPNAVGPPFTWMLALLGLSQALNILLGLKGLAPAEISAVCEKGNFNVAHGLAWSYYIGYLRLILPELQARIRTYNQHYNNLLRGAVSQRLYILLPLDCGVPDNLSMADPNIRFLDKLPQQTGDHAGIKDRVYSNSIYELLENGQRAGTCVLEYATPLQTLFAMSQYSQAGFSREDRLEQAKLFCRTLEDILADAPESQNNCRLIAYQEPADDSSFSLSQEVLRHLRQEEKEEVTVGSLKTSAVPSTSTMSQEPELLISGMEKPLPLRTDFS

Kd: 993 nM
B1: CAD protein (SPR) (enzyme, human, UniProt O76075 1-338, looked up)
chain: MLQKPKSVKLRALRSPRKFGVAGRSCQEVLRKGCLRFQLPERGSRLCLYEDGTELTEDYFPSVPDNAELVLLTLGQAWQGYVSDIRRFLSAFHEPQVGLIQAAQQLLCDEQAPQRQRLLADLLHNVSQNIAAETRAEDPPWFEGLESRFQSKSGYLRYSCESRIRSYLREVSSYPSTVGAEAQEEFLRVLGSMCQRLRSMQYNGSYFDRGAKGGSRLCTPEGWFSCQGPFDMDSCLSRHSINPYSNRESRILFSTWNLDHIIEKKRTIIPTLVEAIKEQDGREVDWEYFYGLLFTSENLKLVHIVCHKKTTHKLNCDPSRIYKPQTRLKRKQPVRKRQ
notes: Probably the recombinant protein from E. coli of the GST pull-down
